Experimental findings from patent US20230314433A1 (KURUME UNIVERSITY, published 2023) are described below.

In experiment [1] the target is T1, recombinant human MDA5 protein (human, UniProt Q9BYX4 1-1025).
T1 construct: Expressed in SF9 cells with baculovirus; also called pPSC8/human MDA5 product; MDA5 standard; not shown: N-terminal 6X His tag, GST and turbo 3C protease cleavage site
T1 sequence: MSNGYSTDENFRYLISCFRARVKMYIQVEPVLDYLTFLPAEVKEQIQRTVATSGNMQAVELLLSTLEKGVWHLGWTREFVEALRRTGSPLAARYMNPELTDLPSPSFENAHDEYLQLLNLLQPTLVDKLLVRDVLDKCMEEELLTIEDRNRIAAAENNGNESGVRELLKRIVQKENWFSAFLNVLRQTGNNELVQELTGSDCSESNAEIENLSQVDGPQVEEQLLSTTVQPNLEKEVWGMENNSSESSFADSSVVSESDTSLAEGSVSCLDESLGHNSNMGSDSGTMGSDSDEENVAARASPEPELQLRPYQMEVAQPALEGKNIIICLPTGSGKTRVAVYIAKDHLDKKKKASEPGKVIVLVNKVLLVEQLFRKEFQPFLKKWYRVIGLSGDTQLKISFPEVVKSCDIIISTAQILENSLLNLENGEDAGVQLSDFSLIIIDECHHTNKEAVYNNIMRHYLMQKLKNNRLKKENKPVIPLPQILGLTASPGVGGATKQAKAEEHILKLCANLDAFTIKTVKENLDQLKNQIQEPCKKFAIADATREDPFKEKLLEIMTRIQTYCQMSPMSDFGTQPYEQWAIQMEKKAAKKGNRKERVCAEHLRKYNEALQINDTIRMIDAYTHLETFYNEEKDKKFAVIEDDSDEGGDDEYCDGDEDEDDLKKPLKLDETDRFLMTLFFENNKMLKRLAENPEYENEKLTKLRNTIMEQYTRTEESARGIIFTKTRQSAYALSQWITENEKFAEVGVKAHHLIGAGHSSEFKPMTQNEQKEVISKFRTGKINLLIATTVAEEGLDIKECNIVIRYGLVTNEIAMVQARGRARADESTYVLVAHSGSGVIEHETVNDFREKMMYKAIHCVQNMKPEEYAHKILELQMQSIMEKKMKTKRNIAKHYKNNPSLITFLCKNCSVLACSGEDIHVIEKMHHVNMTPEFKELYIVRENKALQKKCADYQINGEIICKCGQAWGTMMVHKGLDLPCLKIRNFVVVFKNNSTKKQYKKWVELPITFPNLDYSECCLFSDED
Put plainly: electrochemiluminescence sandwich immunoassay (MSD), H46 coated as primary (capture) mAb. The protocol:
The human MDA5 sandwich immunoassay system was established using electrochemiluminescence in a MESOSCALE DISCOVERY (registered trademark) assay system (Meso Scale Japan, Tokyo, Japan). Briefly, mouse anti-human MDA5 monoclonal antibody (clone H46) was used as the primary mAb, dissolved at 2 µg/mL in phosphate-buffered saline (PBS), dispensed into plates in aliquots of 25 µL/well, and left undisturbed overnight at 4° C. The plates were then washed three times with 150 µL Quantikine Wash Buffer 1 (R&D Systems, Minneapolis, MN, USA). Block Ace blocking solution (100 µL/well; Nacalai Tesque, Kyoto, Japan) was added and incubated for at least one hour at room temperature to prevent nonspecific adhesion of the secondary antibody to the plates. The plates were then washed thrice. The samples were aliquoted at 25 µL/well. Recombinant human MDA5 protein diluted to 50 ng/mL, 10 ng/mL, 2 ng/mL, 400 pg/mL, 80 pg/mL, 16 pg/mL, and 3.2 pg/mL was used as a standard. After 1 h of incubation at room temperature, each well was washed thrice. Next, 2 µg/mL biotin-labeled mouse anti-human MDA5 secondary mAb (clone H27) was added at 25 µL/well, followed by incubation for 1 h at room temperature after which each well was washed three times. […] The amount of human MDA5 protein was measured using MESO QuickPlex SQ 120 according to the manufacturer’s protocol.

The target in experiment [2] is T2, human MDA5 protein (full-length, about 120 kDa) (human, UniProt Q9BYX4 1-1025).
T2 construct: Endogenous cytoplasmic protein in human tissue sections, tissue lysates and PBMCs (band of about 120 kDa); also called IFIH1
T2 sequence: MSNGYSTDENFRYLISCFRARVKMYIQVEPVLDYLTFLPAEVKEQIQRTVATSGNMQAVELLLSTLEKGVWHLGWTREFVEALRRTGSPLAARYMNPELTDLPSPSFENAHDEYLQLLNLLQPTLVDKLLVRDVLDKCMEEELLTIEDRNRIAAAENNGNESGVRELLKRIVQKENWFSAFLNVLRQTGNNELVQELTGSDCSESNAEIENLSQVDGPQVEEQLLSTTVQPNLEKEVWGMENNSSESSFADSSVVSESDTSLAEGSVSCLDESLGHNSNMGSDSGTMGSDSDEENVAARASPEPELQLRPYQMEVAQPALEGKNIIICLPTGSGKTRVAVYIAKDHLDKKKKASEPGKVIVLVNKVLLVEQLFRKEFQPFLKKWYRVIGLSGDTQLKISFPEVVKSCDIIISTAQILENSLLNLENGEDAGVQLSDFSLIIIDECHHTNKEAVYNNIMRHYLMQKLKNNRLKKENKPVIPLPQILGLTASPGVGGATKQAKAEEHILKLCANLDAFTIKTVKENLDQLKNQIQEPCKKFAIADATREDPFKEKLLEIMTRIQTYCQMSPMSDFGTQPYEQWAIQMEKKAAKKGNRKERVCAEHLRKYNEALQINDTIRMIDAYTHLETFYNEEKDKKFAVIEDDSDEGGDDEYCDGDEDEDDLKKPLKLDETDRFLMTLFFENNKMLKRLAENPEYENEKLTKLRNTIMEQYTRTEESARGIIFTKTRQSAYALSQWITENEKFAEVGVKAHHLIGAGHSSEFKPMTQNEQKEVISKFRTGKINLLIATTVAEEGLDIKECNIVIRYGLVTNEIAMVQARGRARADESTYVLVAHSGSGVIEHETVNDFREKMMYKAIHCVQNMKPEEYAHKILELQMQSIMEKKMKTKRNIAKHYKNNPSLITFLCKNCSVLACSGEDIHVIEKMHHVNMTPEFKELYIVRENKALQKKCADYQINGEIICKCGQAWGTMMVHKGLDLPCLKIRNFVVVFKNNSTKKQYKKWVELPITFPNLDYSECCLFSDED
Put plainly: Western blot of normal lung and lung cancer tissues, mAb at 1 ug/mL. The protocol: Western blotting analysis was performed by using NuPAGE (registered trademark) 7% Tris-Acetate Midi Gel (Thermo Fisher Scientific, Tokyo, Japan) according to the manufacture’s protocol. Anti-human MDA5 mAb (clone H27 or clone H46, 1 µg/mL) was used for immunoblotting, as previously reported (T. Hoshino, et al., Am J Respir Crit Care Med 176 (2007) 49-62).
(Immunoblotting shows a protein as a band on a membrane.)

B1: mouse anti-human MDA5 monoclonal antibody (H46) (antibody, V domains shown)
VH: EFQLQQSGPELVKPGASVKISCKASGYSFTDYNMNWVKQSNGKSLEWIGVINPDYGSTSYNKKFKGKATLTVDQSSTTAYMQLNSLTSEDSAVYFCARDRYGNYFDYWGQGTTLTVSS
VL: QIVLTQSPAIMSASPGEKVTMTCSASSSLNYMHWYLQKPGTSPKRWIYDTSKLASGVPARFSGSGSGTSYSLTISSMEAEDAATYYCHQRSSYPITFGSGTKLEIK
notes: Mouse IgG2b from a hybridoma; also called clone H46; H46 [mouse IgG2b]
As for B1, the binding result in experiment [1] and in experiment [2] was “binds” throughout.
